Results on one molecule are retold here after patent US20180280549A1 (METAFORA BIOSYSTEMS, published 2018).

For assay [1], the target named is T1, ASCT2 (glutamine and other neutral amino acid transporter) (human, UniProt Q15758 1-541).
T1 construct: Endogenous transporter on human pancreatic tumor cell lines; also called human ASCT2
T1 sequence: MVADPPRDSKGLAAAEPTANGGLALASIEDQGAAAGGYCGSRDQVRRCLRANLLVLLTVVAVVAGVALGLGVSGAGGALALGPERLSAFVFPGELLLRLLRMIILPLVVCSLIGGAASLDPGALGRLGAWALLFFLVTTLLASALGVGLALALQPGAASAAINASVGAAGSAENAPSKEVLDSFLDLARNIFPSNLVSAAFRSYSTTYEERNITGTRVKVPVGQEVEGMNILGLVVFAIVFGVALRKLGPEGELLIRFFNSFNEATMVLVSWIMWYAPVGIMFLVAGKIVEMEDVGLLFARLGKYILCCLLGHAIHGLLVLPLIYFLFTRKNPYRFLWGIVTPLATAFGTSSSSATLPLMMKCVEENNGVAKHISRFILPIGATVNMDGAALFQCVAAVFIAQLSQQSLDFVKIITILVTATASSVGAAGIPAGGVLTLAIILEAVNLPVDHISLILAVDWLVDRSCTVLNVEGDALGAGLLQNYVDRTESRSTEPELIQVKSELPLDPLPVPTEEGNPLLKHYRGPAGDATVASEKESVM
In words: flow cytometry on pancreatic tumor cell lines (endogenous transporter; ASCT-1/ASCT-2 is the target by Table 1), anti-mouse A647 detection; Capan1 also detected (data not shown).

The target in assay [2] is T2, ASCT1 (glutamate and neutral amino acid transporter) (human, UniProt P43007 1-532).
T2 construct: Endogenous transporter on human pancreatic tumor cell lines; also called human ASCT1
T2 sequence: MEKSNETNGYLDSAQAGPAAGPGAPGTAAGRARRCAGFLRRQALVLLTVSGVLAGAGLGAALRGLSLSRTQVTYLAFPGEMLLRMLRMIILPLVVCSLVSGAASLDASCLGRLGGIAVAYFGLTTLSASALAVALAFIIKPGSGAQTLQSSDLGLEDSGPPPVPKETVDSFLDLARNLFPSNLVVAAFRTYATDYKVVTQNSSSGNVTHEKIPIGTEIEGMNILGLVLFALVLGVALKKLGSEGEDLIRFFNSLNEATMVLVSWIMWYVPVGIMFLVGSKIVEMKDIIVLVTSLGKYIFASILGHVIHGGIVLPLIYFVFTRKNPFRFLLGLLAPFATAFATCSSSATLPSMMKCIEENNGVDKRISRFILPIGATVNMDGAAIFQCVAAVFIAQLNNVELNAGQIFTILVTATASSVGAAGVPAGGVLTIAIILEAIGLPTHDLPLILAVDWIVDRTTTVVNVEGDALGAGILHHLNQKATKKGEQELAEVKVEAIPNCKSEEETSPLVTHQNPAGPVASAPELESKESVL
The description is as above.

B1: HERV-W.RBD.MFC (HERV-W.RBD, receptor-binding domain of the human endogenous retrovirus W envelope glycoprotein, fused to a mouse Fc fragment) (Fc fusion)
chain: APPPCRCMTSSSPYQEFLWRMQRPGNIDAPSYRSLSKGTPTFTAHTHMPRNCYHSATLCMHANTHYWTGKMINPSCPGGLGVTVCWTYFTQTGMSDGGGVQGSVDVPRDCGCKPCICTVPEVSSVFIFPPKPKDVLTITLTPKVTCVVVDISKDDPEVQFSWFVDDVEVHTAQTQPREEQFNSTFRSVSELPIMHQDWLNGKEFKCRVNSAAFPAPIEKTISKTKGRPKAPQVYTIPPPKEQMAKDKVSLTCMITDFFPEDITVEWQWNGQPAENYKNTQPIMDTDGSYFVYSKLNVQKSNWEAGNTFTCSVLHEGLHNHHTEKSLSHSPGK
modifications: I-125 on tyrosine or histidine residues in the in vivo experiment only (IODO-GEN method); unlabelled in flow cytometry
notes: The entry may begin with a signal peptide; also called I-125.HERV-W.RBD.MFC
Consider B1, for which the binding result in assay [1] and in assay [2] was “binds” each time.
